The record followed here is patent US20110038869A1 (Genmab, published 2011).

For experiment [1], the target named is T1, biotinylated CD32bECDHis (human, UniProt P31994 43-223, limits assumed, biotinylated (sites not given)).
T1 sequence (looked up): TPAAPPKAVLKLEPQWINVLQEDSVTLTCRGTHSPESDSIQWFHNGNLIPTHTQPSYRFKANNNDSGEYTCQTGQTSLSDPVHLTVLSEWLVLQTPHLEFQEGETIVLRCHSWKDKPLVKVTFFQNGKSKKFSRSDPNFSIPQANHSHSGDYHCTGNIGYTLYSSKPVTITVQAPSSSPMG
In words: competition ELISA, competitor 022. How it is done:
(§1) ELISA wells were coated overnight at 4° C. with anti-CD32b HuMabs serially diluted in PBS. The ELISA wells were washed with PBS, blocked for one hour at room temperature with 2% (v/v) chicken serum (Gibco, Paisley, Scotland) in PBS and washed again with PBS. Subsequently, the immobilized antibodies were incubated with biotinylated CD32bECDHis serially diluted in PBSTC. After washing with PBS/Tween, bound biotinylated CD32bECDHis was incubated with Streptavidin-poly-HRP (Sanquin, Amsterdam, The Netherlands) for 1 hr at RT an the reaction was developed as described supra.
(§2) To this end, ELISA wells coated with anti-CD32b HuMabs were incubated in the presence of an excess of CD32b-specific antibody and the predetermined concentration of biotinylated CD32bECDHis in fluid phase. The reaction was developed as described.

Experiment [2] deals with T1, biotinylated CD32bECDHis. The experiment is described as follows: competition ELISA, competitor 026. How it is done:
as §1, §2

In experiment [3] the target is T1, biotinylated CD32bECDHis. In words: competition ELISA, competitor 038. On the procedure:
as §1, §2

For experiment [4], the target named is T1, biotinylated CD32bECDHis. The experiment is described as follows: competition ELISA, competitor 028. On the procedure: as §1, §2
Experiment [5] deals with T1, biotinylated CD32bECDHis. The experiment is described as follows: competition ELISA, competitor 034. How it is done:
as §1, §2

Experiment [6] concerns the target T1, biotinylated CD32bECDHis. The experiment is described as follows: competition ELISA, competitor 2B6. How it is done:
as §1, §2

The target in experiment [7] is T1, biotinylated CD32bECDHis. In words: competition ELISA, competitor 020. How it is done: as §1, §2
The target in experiment [8] is T1, biotinylated CD32bECDHis. The experiment is described as follows: competition ELISA, competitor 024. How it is done: as §1, §2
Experiment [9] concerns the target T1, biotinylated CD32bECDHis. In words: competition ELISA, competitor 053. On the procedure:
as §1, §2

The target of experiment [10] is T2, full length CD32b2 on transfected IIA1.6 cells (human, UniProt P31994-2 43-291).
T2 construct: whole, on cells; also called IIA1.6-CD32b2
T2 sequence (looked up): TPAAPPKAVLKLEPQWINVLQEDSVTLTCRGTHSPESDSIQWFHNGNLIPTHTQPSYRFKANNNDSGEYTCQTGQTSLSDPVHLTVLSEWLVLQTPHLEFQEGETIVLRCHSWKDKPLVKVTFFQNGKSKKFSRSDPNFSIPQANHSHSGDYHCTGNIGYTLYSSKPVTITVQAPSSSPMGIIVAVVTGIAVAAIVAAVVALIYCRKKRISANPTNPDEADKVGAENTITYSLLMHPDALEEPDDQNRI
The experiment is described as follows: flow cytometry on IIA1.6-CD32b2 cells. On the procedure: After harvesting and counting, IIA1.6 cells stably transfected with full length CD32a and CD32b (van den Herik-Oudijk et al., 1994), control IIA1.6 cells and Daudi-luc cells were resuspended in PBS (1×10⁶ cells/ml). Cells were put in 96-well V-bottom plates (100 μl/well) and washed twice with FACS buffer (PBS supplemented with 0.1% BSA and 0.02% Na-azide). Thereafter, 50 μl of serially diluted HuMab in FACS buffer was added to the cells and incubated for 30 minutes at 4° C. After washing three times with FACS buffer, 50 μl of phycoerythrin (PE)-conjugated rabbit anti-human IgG (Jackson ImmunoResearch Europe), diluted 1:200 in FACS buffer, was added. After 30 minutes at 4° C. (in the dark), cells were washed three times, and specific binding of the HuMabs was detected by flow cytometry on a FACSCalibur (BD Biosciences). […] Binding curves were analyzed using non-linear regression (sigmoidal dose-response with variable slope) using GraphPad Prism V4.03 software (GraphPad Software, San Diego, Calif., USA).
To analyze binding of anti-CD32b HuMabs to CD32b1 and CD32b2, IIA1.6 cells transfected with full length CD32b1 or CD32b2 (van den Herik-Oudijk et al., 1994) were prepared as described supra. The assay was performed as described supra. Flow cytometry was performed on a FACS Canto II (BD Biosciences).

The target in experiment [11] is T1, biotinylated CD32bECDHis. In words: competition ELISA, competitor 016. On the procedure: as §1, §2
A further experiment has as its target T3, CD32bECDHis (human, UniProt P31994 43-223, limits assumed).
T3 construct: Produced in HEK-293F cells; also called extracellular domain of CD32b with C-terminal His tag; soluble CD32b
T3 sequence (looked up): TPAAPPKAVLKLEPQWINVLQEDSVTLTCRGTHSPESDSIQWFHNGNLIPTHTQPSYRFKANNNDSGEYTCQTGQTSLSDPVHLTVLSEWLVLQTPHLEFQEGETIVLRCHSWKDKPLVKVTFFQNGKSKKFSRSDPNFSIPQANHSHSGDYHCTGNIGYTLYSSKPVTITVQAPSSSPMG
The experiment is described as follows: TR-FRET competition against HuMab-KLH-AlexaFluor 647 (N = 2). An excerpt: To study the interaction of anti-CD32b HuMabs with CD32b and CD32a in more detail TR-FRET technology was applied. To this end, CD32bECDHis and CD32aECDHis were labeled with a fluorescent donor molecule directed against the histidine tag (Anti-6×His Europium3+, PerkinElmer, Boston Mass.).
Briefly, all dilutions were made in 0.5× Lance detection buffer (PerkinElmer, Boston Mass.) supplemented with 0.2% BSA (obtained via dilution of 7.5% BSA Stabilizer solution, cat: CR84-100, PerkinElmer) and 0.03% (v/v) Tween-20 (Riedel de Haen, Seelze, Germany). CD32bECDHis and CD32aECDHis were diluted to 0.5 μg/ml. […] Anti-6×His Europium3+ (PerkinElmer, Boston Mass.) was diluted to 0.15 μg/ml. […] After overnight incubation at 4° C. in the dark, fluorescence was measured using an EnVision 2101 Multilabel reader (PerkinElmer, Boston, Mass.) applying the following settings; Lance/Delfia dual mirror, emission filter 615-665 nm, excitation filter 320 nm, delay time 60 μs, window 100 μs, 100 flashes, 2000 μs per cycle and bidirectional row-by-row reading. Binding curves were analyzed using non-linear regression (sigmoidal dose-response with variable slope) using GraphPad Prism V4.03 software (GraphPad Software, San Diego, Calif., USA).

In experiment [12] the target is T1, biotinylated CD32bECDHis. The experiment is described as follows: competition ELISA, competitor 063. On the procedure:
as §1, §2

B1: Antibody 034 (antibody, human IgG1, V domains shown)
VH: EVQLLESGGGLVQPGGSLRLSCAASGFTFSNFVMSWVRQAPGKGLEWVSGISGSGGNTDHADSVKGRFTISRDNSKNTVYLQMNSLRAEDTAVYYCAKDSGGLFDYWGLGTLVTVSS
VL: not shown
notes: Human antibody; also called HuMab 034
Turning to B1, the “% residual binding” value with biotinylated CD32bECDHis [1] was determined as 63%; with biotinylated CD32bECDHis [2] it was 83%; with biotinylated CD32bECDHis [3], 98%; with biotinylated CD32bECDHis [4], 75%; with biotinylated CD32bECDHis [5], 23%; in the experiment with biotinylated CD32bECDHis [6] it was 90%. In addition, the “% residual binding” value is 83% with biotinylated CD32bECDHis [7]; 56% with biotinylated CD32bECDHis [8]; 90% in the experiment with biotinylated CD32bECDHis [9]; 98% with biotinylated CD32bECDHis [11]; 89% in the experiment with biotinylated CD32bECDHis [12]. This molecule returned an EC50 in [10] of 0.069 µM. In the experiment with CD32bECDHis, this molecule gave an IC50 of 0.00045 µM.
